Reference: the Immune Epitope Database (IEDB)

Tests used:
HLA-B*15:01 = assay: IEDB peptide-MHC binding, purified MHC/competitive/radioactivity; filed as Kd, often an IC50 or EC50 that approximates it; ≥ and ≤ were set here for values at or beyond the usual limits of such assays
HLA-B*15:03 = assay: as above
HLA-A*30:01 = assay: as above
HLA-A*32:01 = assay: as above
HLA-B*08:01 = assay: as above
HLA-A*23:01 = assay: IEDB peptide-MHC binding, purified MHC/direct/fluorescence; filed as Kd, often an IC50 or EC50 that approximates it; ≥ and ≤ were set here for values at or beyond the usual limits of such assays; conditions: source organism: Entamoeba histolytica HM-1:IMSS
HLA-A*24:03 = assay: as above; conditions: source organism: Entamoeba histolytica HM-1:IMSS
[1] = source organism: Vaccinia virus Copenhagen
[2] = source organism: Vaccinia virus WR

LLSLEIVFF gave a Kd (HLA-B*15:01; [1]) of 142 nM and a Kd (HLA-B*15:03; [1]) of 2110 nM.

KVKDLFNTK showed a Kd (HLA-A*30:01; [2]) of 37.7 nM, a Kd (HLA-A*32:01; [2]) of 2480 nM and a Kd (HLA-B*08:01; [2]) of at least 42000 nM. The Kd (HLA-B*15:01; [2]) was 4460 nM and the Kd (HLA-B*15:03; [2]) was at least 22100 nM.

FLSEPYSYF was tested, and the Kd (HLA-B*15:03; [2]) was 29.3 nM.

WSTSFTNIF gave a Kd (HLA-B*15:03; [1]) of 5.88 nM.

Work on ISVLTGSSI yielded a Kd (HLA-A*30:01; [1]) of 3220 nM, a Kd (HLA-A*32:01; [1]) of 3910 nM and a Kd (HLA-B*08:01; [1]) of at least 20600 nM. The Kd (HLA-B*15:01; [1]) was 34.3 nM and the Kd (HLA-B*15:03; [1]) was 24.9 nM.

SIRSMSRSI was tested, and the Kd (HLA-A*30:01; [1]) was 132 nM, the Kd (HLA-A*32:01; [1]) was 1360 nM and the Kd (HLA-B*08:01; [1]) was 77.2 nM. It also gave a Kd (HLA-B*15:01; [1]) of 362 nM and a Kd (HLA-B*15:03; [1]) of 10300 nM.

For QYQNEINYL, the Kd (HLA-A*23:01) was 2 nM and the Kd (HLA-A*24:03) was 3 nM.

In the case of FMAYTTSHI, the Kd (HLA-B*15:01; [2]) is reported as 132 nM and the Kd (HLA-B*15:03; [2]) is reported as 7.58 nM.

With KKYNNDKSF the Kd (HLA-A*30:01; [2]) was at least 20300 nM, the Kd (HLA-A*32:01; [2]) was 11400 nM and the Kd (HLA-B*08:01; [2]) was 3820 nM. It also gave a Kd (HLA-B*15:01; [2]) of 6620 nM and a Kd (HLA-B*15:03; [2]) of 0.0778 nM.

SKFVYVSVM gave a Kd (HLA-B*15:03; [2]) of 1.63 nM.

For AILSLNLRI, the Kd (HLA-A*30:01; [2]) was 155 nM, the Kd (HLA-A*32:01; [2]) was 151 nM and the Kd (HLA-B*08:01; [2]) was 1280 nM. The Kd (HLA-B*15:01; [2]) was 142 nM and the Kd (HLA-B*15:03; [2]) was 237 nM.

In the case of LATFTVNIF, the Kd (HLA-B*15:03; [2]) is reported as 35.1 nM.
